Measurements taken from IntAct's records for PubMed 23354168.

B1: Ephrin-B2 (Mus musculus), P52800 (parent)
chain: MAMARSRRDSVWKYCWGLLMVLCRTAISRSIVLEPIYWNSSNSKFLPGQGLVLYPQIGDKLDIICPKVDSKTVGQYEYYKVYMVDKDQADRCTIKKENTPLLNCARPDQDVKFTIKFQEFSPNLWGLEFQKNKDYYIISTSNGSLEGLDNQEGGVCQTRAMKILMKVGQDASSAGSARNHGPTRRPELEAGTNGRSSTTSPFVKPNPGSSTDGNSAGHSGNNLLGSEVALFAGIASGCIIFIVIIITLVVLLLKYRRRHRKHSPQHTTTLSLSTLATPKRGGNNNGSEPSDVIIPLRTADSVFCPHYEKVSGDYGHPVYIVQEMPPQSPANIYYKV
partner: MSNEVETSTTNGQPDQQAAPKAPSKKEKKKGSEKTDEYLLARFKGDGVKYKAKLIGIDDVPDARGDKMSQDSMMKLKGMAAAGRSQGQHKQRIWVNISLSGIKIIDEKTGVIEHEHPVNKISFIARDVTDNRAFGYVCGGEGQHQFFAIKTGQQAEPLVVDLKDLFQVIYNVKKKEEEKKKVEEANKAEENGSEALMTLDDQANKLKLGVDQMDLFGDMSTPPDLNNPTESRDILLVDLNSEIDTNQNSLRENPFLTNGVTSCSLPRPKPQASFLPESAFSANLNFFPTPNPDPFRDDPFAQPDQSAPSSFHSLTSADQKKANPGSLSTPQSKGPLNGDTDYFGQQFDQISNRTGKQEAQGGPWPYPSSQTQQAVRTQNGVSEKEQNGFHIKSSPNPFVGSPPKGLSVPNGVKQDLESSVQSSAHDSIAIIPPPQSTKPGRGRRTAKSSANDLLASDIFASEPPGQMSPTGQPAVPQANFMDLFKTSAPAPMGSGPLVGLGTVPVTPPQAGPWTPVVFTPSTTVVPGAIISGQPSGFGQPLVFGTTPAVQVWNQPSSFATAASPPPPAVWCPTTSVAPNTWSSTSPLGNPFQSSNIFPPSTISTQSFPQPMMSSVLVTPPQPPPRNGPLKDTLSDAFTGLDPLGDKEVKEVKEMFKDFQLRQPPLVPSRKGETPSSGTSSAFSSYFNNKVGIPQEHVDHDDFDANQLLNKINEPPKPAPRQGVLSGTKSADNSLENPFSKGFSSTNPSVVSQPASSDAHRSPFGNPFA

Variants of: B1
Conditions: with dab2_rat Dab2, O88797

Q: V336S was tested. Which “effect of a mutation on the interaction” value did it give?
A: disrupting interaction strength
